Measured values as given in PMC3285579.

Tests used:
[1] = target: MBP-WSP-1(334 aa-608 aa) (C. elegans); assay: pull-down; MBP pull-down with competitors (Figure 6B): MBP-WSP-1 on amylose resin; soluble extracts of GST-NCK-1 F.L., GST-UNC-34 F.L. and His-VAB-1 as load; band intensities quantified from at least two independent blots with Image J; wash 20 mM Tris-Cl pH 7.5, 200 mM NaCl, 1 mM EDTA, 1 mM DTT
[2] = target: GST-NCK-1 F.L., full length NCK-1 (1 aa-397 aa) (C. elegans); assay: as above

Sequence of MBP-WSP-1(334 aa-608 aa) (C. elegans) (main, as listed by the source): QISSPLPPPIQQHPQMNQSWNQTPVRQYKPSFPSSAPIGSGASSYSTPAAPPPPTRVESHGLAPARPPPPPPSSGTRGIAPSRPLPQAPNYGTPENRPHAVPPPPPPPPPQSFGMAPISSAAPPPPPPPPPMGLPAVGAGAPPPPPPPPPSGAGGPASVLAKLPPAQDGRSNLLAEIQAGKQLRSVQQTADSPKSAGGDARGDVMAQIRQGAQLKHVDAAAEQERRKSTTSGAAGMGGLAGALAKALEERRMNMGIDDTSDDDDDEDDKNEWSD

| relative intensity of NCK-1 pulled down by MBP-WSP-1 with UNC-34 and VAB-1 added (NCK-1 alone = 1.0) [1] | relative intensity of NCK-1 pulled down by MBP-WSP-1 with UNC-34 added (without UNC-34 = 1.0) [2] | Substance |
| --- | --- | --- |
| 1.3 | – | GST-NCK-1 F.L., full length NCK-1 (1 aa-397 aa) (natural protein) |
| – | 0.3 | GST-UNC-34 F.L., full length UNC-34 (1 aa-454) (natural protein) |
